Experimental findings from US20170015742A1 (published 2017) are described below.

The target of test [1] is recombinant human PDGF-BB (human, UniProt P01127 82-190). The test can be described thus: cell-based or functional assay.
In test [2] the target is recombinant human VEGF165 (human, UniProt P15692 207-395). The test can be described thus: cell-based or functional assay.
recombinant human VEGF165, sequence (P15692 other isoform, or with tags, fused parts or gaps limits assumed): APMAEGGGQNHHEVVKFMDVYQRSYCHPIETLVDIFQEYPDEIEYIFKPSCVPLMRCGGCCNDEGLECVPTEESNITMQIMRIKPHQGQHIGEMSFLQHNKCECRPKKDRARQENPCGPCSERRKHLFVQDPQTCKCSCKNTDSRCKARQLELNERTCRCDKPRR

recombinant human PDGF-BB, sequence (P01127 82-190 limits assumed): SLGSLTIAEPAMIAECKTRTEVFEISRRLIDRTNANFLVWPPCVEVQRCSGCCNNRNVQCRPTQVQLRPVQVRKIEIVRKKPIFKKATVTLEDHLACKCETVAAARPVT

B1: 9E10.1_GS_9E8.4 (bispecific antibody, human IgG1, kappa, L234A L235A)
heavy: EIQLVQSGSELKKPGASVKVSCKASGYTFTNYGMYWVKQAPGQGLEYMGWIDTETGRPTYADDFKGRFVFSLDTSVSTAYLQISSLKAEDTAVYFCARWSGDTTGIRGPWFAYWGQGTLVTVSSGGGGSGGGGSEVTLRESGPALVKPTQTLTLTCTFSGFSLSTYGMGVGWIRQPPGKALEWLANIWWDDDKYYNPSLKNRLTISKDTSKNQVVLTMTNMDPVDTATYYCARIESIGTTYSFDYWGQGTMVTVSSASTKGPSVFPLAPSSKSTSGGTAALGCLVKDYFPEPVTVSWNSGALTSGVHTFPAVLQSSGLYSLSSVVTVPSSSLGTQTYICNVNHKPSNTKVDKKVEPKSCDKTHTCPPCPAPEAAGGPSVFLFPPKPKDTLMISRTPEVTCVVVDVSHEDPEVKFNWYVDGVEVHNAKTKPREEQYNSTYRVVSVLTVLHQDWLNGKEYKCKVSNKALPAPIEKTISKAKGQPREPQVYTLPPSREEMTKNQVSLTCLVKGFYPSDIAVEWESNGQPENNYKTTPPVLDSDGSFFLYSKLTVDKSRWQQGNVFSCSVMHEALHNAYTQKSLSLSPGK
light: DIRMTQSPSSLSASVGDRVTIECLASEDIYSDLAWYQQKPGKSPKLLIYNANGLQNGVPSRFSGSGSGTDYSLTISSLQPEDVATYFCQQYNYFPGTFGQGTKLEIKGGSGGGGSGGEFVLTQSPGTLSLSPGERATLSCERSSGDIGDSYVSWYQQKPGQAPRLVIYADDQRPSGIPDRFSGSGSGTDFTLTISRLEPEDFAVYYCQSYDINIDIVFGGGTKVEIKRTVAAPSVFIFPPSDEQLKSGTASVVCLLNNFYPREAKVQWKVDNALQSGNSQESVTEQDSKDSTYSLSSTLTLSKADYEKHKVYACEVTHQGLSSPVTKSFNRGEC
With B1, the “Potency IC50 (nM) NIH-3T3 hPDGF-BB” value in test [1] came out at 1.91 nM. Also, the “Potency IC50 (nM) HMVEC-d hVEGF165” value in test [2] came to 0.059 nM.

B2: 9E10.6_GS_9E8.4 (bispecific antibody, human IgG1, kappa, L234A L235A)
heavy: EVQLVQSGAEVKKPGSSVKVSCKASGYTFTNYGMYWVRQAPGQGLEWMGWIDTETGRPTYADDFKGRFTFTADKSTSTAYMELSSLRSEDTAVYYCARWSGDTTGIRGPWFAYWGQGTLVTVSSGGGGSGGGGSEVTLRESGPALVKPTQTLTLTCTFSGFSLSTYGMGVGWIRQPPGKALEWLANIWWDDDKYYNPSLKNRLTISKDTSKNQVVLTMTNMDPVDTATYYCARIESIGTTYSFDYWGQGTMVTVSSASTKGPSVFPLAPSSKSTSGGTAALGCLVKDYFPEPVTVSWNSGALTSGVHTFPAVLQSSGLYSLSSVVTVPSSSLGTQTYICNVNHKPSNTKVDKKVEPKSCDKTHTCPPCPAPEAAGGPSVFLFPPKPKDTLMISRTPEVTCVVVDVSHEDPEVKFNWYVDGVEVHNAKTKPREEQYNSTYRVVSVLTVLHQDWLNGKEYKCKVSNKALPAPIEKTISKAKGQPREPQVYTLPPSREEMTKNQVSLTCLVKGFYPSDIAVEWESNGQPENNYKTTPPVLDSDGSFFLYSKLTVDKSRWQQGNVFSCSVMHEALHNAYTQKSLSLSPGK
light: DIRMTQSPSSLSASVGDRVTITCLASEDIYSDLAWYQQKPGKSPKLLIYNANGLQNGVPSRFSGSGSGTDYTLTISSLQPEDVATYFCQQYNYFPGTFGQGTKLEIKGGSGGGGSGGEFVLTQSPGTLSLSPGERATLSCERSSGDIGDSYVSWYQQKPGQAPRLVIYADDQRPSGIPDRFSGSGSGTDFTLTISRLEPEDFAVYYCQSYDINIDIVFGGGTKVEIKRTVAAPSVFIFPPSDEQLKSGTASVVCLLNNFYPREAKVQWKVDNALQSGNSQESVTEQDSKDSTYSLSSTLTLSKADYEKHKVYACEVTHQGLSSPVTKSFNRGEC
B2: in test [1], the “Potency IC50 (nM) NIH-3T3 hPDGF-BB” value worked out at 1.14 nM. Moreover, in test [2], the “Potency IC50 (nM) HMVEC-d hVEGF165” value amounted to 0.049 nM.

B3: 1B10.1_GS_9E8.4 (bispecific antibody, human IgG1, kappa, L234A L235A)
heavy: EVQLVESGGGLVQPGGSLRLSCAASGFSFSKYDMAWFRQAPGKGLEWVASITTSGVGTYYRDSVKGRFTVSRDNAKSTLYLQMNSLRAEDTAVYYCARGYGAMDAWGQGTTVTVSSGGGGSGGGGSEVTLRESGPALVKPTQTLTLTCTFSGFSLSTYGMGVGWIRQPPGKALEWLANIWWDDDKYYNPSLKNRLTISKDTSKNQVVLTMTNMDPVDTATYYCARIESIGTTYSFDYWGQGTMVTVSSASTKGPSVFPLAPSSKSTSGGTAALGCLVKDYFPEPVTVSWNSGALTSGVHTFPAVLQSSGLYSLSSVVTVPSSSLGTQTYICNVNHKPSNTKVDKKVEPKSCDKTHTCPPCPAPEAAGGPSVFLFPPKPKDTLMISRTPEVTCVVVDVSHEDPEVKFNWYVDGVEVHNAKTKPREEQYNSTYRVVSVLTVLHQDWLNGKEYKCKVSNKALPAPIEKTISKAKGQPREPQVYTLPPSREEMTKNQVSLTCLVKGFYPSDIAVEWESNGQPENNYKTTPPVLDSDGSFFLYSKLTVDKSRWQQGNVFSCSVMHEALHNAYTQKSLSLSPGK
light: DIQMTQSPSSLSASVGDRVTITCKASQDIDDYLSWYQQKPGKSPKLVIYAATRLADGVPSRFSGSGSGTDYTLTISSLQPEDFATYYCLQSSSTPWTFGGGTKVEIKGGSGGGGSGGEFVLTQSPGTLSLSPGERATLSCERSSGDIGDSYVSWYQQKPGQAPRLVIYADDQRPSGIPDRFSGSGSGTDFTLTISRLEPEDFAVYYCQSYDINIDIVFGGGTKVEIKRTVAAPSVFIFPPSDEQLKSGTASVVCLLNNFYPREAKVQWKVDNALQSGNSQESVTEQDSKDSTYSLSSTLTLSKADYEKHKVYACEVTHQGLSSPVTKSFNRGEC
For the molecule B3, in test [1], the “Potency IC50 (nM) NIH-3T3 hPDGF-BB” value came to 0.678 nM. Also, the “Potency IC50 (nM) HMVEC-d hVEGF165” value in test [2] came out at 0.127 nM.

B4: 1E3.4_GS_3E2.1 (bispecific antibody, human IgG1, kappa, L234A L235A)
heavy: EIQLVQSGSELKKPGASVKVSCKASGYPFTNSGMYWVKQAPGQGLEYMGWINTEAGKPTYADDFKGRFVFSLDTSVSTAYLQISSLKAEDTAVYFCARWGYISDNSYGWFDYWGQGTLVTVSSGGGGSGGGGSEVQLVQSGAEVKKPGSSVKVSCKASGYTFTESYMYWVKQAPGQGLELIGRIDPEDGSTDYVEKFKNKATLTADKSTSTAYMELSSLRSEDTAVYFCARFGARSYFYPMDAWGQGTTVTVSSASTKGPSVFPLAPSSKSTSGGTAALGCLVKDYFPEPVTVSWNSGALTSGVHTFPAVLQSSGLYSLSSVVTVPSSSLGTQTYICNVNHKPSNTKVDKKVEPKSCDKTHTCPPCPAPEAAGGPSVFLFPPKPKDTLMISRTPEVTCVVVDVSHEDPEVKFNWYVDGVEVHNAKTKPREEQYNSTYRVVSVLTVLHQDWLNGKEYKCKVSNKALPAPIEKTISKAKGQPREPQVYTLPPSREEMTKNQVSLTCLVKGFYPSDIAVEWESNGQPENNYKTTPPVLDSDGSFFLYSKLTVDKSRWQQGNVFSCSVMHEALHNAYTQKSLSLSPGK
light: ATQLTQSPSSLSASVGDRVTISCRASEGVYSYMHWYQQKPGKQPKLLIYKASNLASGVPSRFSGSGSGTDFTLTISSLQPEDFATYFCHQNWNDPLTFGQGTKLEIKGGSGGGGSGGETVLTQSPATLSLSPGERATLSCRASESVSTLMHWYQQKPGQQPRLLIYGASNLESGVPARFSGSGSGTDFTLTISSLEPEDFAVYFCQQSWNDPWTFGGGTKVEIKRTVAAPSVFIFPPSDEQLKSGTASVVCLLNNFYPREAKVQWKVDNALQSGNSQESVTEQDSKDSTYSLSSTLTLSKADYEKHKVYACEVTHQGLSSPVTKSFNRGEC
Take B4: in test [1], the “Potency IC50 (nM) NIH-3T3 hPDGF-BB” value is 6.25 nM. Besides, the “Potency IC50 (nM) HMVEC-d hVEGF165” value in test [2] turned out to be 0.043 nM.

B5: 9E10.6_GS_CL-33675 (bispecific antibody, human IgG1, kappa, L234A L235A)
heavy: EVQLVQSGAEVKKPGSSVKVSCKASGYTFTNYGMYWVRQAPGQGLEWMGWIDTETGRPTYADDFKGRFTFTADKSTSTAYMELSSLRSEDTAVYYCARWSGDTTGIRGPWFAYWGQGTLVTVSSGGGGSGGGGSEVTLRESGPALVKPTQTLTLTCTFSGFSLSTYGMGVGWIRQPPGKALEWLANIWWDDDKYYNPSLKNRLTISKDTSKNQVVLTMTNMDPVDTATYYCARIESSGPKYSFDYWGQGTMVTVSSASTKGPSVFPLAPSSKSTSGGTAALGCLVKDYFPEPVTVSWNSGALTSGVHTFPAVLQSSGLYSLSSVVTVPSSSLGTQTYICNVNHKPSNTKVDKKVEPKSCDKTHTCPPCPAPEAAGGPSVFLFPPKPKDTLMISRTPEVTCVVVDVSHEDPEVKFNWYVDGVEVHNAKTKPREEQYNSTYRVVSVLTVLHQDWLNGKEYKCKVSNKALPAPIEKTISKAKGQPREPQVYTLPPSREEMTKNQVSLTCLVKGFYPSDIAVEWESNGQPENNYKTTPPVLDSDGSFFLYSKLTVDKSRWQQGNVFSCSVMHEALHNAYTQKSLSLSPGK
light: DIRMTQSPSSLSASVGDRVTITCLASEDIYSDLAWYQQKPGKSPKLLIYNANGLQNGVPSRFSGSGSGTDYTLTISSLQPEDVATYFCQQYNYFPGTFGQGTKLEIKGGSGGGGSGGEIVLTQSPGTLSLSPGERATLSCRASSGSIWYSFVSWYQQKPGQAPRLLIYADDQRASGIPDRFSGSGSGTDFTLTISRLEPEDFAVYYCQSYGINIDVVFGGGTKVEIKRTVAAPSVFIFPPSDEQLKSGTASVVCLLNNFYPREAKVQWKVDNALQSGNSQESVTEQDSKDSTYSLSSTLTLSKADYEKHKVYACEVTHQGLSSPVTKSFNRGEC
Regarding B5, in test [1], the “Potency IC50 (nM) NIH-3T3 hPDGF-BB” value was 0.037 nM. Also, the “Potency IC50 (nM) HMVEC-d hVEGF165” value in test [2] is 0.05 nM.

B6: 4G8.5_GS_9E8.4 (bispecific antibody, human IgG1, kappa, L234A L235A)
heavy: EIQLVQSGSELKKPGASVKVSCKASGYTFTNYGMYWVRQAPGQGLEYMGWINTETGKPTYADDFKGRFVFSLDTSVSTAYLQISSLKAEDTAVYFCARTNYYYRSYIFYFDYWGQGTMVTVSSGGGGSGGGGSEVTLRESGPALVKPTQTLTLTCTFSGFSLSTYGMGVGWIRQPPGKALEWLANIWWDDDKYYNPSLKNRLTISKDTSKNQVVLTMTNMDPVDTATYYCARIESIGTTYSFDYWGQGTMVTVSSASTKGPSVFPLAPSSKSTSGGTAALGCLVKDYFPEPVTVSWNSGALTSGVHTFPAVLQSSGLYSLSSVVTVPSSSLGTQTYICNVNHKPSNTKVDKKVEPKSCDKTHTCPPCPAPEAAGGPSVFLFPPKPKDTLMISRTPEVTCVVVDVSHEDPEVKFNWYVDGVEVHNAKTKPREEQYNSTYRVVSVLTVLHQDWLNGKEYKCKVSNKALPAPIEKTISKAKGQPREPQVYTLPPSREEMTKNQVSLTCLVKGFYPSDIAVEWESNGQPENNYKTTPPVLDSDGSFFLYSKLTVDKSRWQQGNVFSCSVMHEALHNAYTQKSLSLSPGK
light: ATQLTQSPSLSASVGDRVTITCRASESVSTHMHWYQQKPGKQPKLLIYGASNLESGVPSRFSGSGSGTDFTLTISSLQPEDFATYFCQQSWNDPFTFGQGTKLEIKGGSGGGGSGGEFVLTQSPGTLSLSPGERATLSCERSSGDIGDSYVSWYQQKPGQAPRLVIYADDQRPSGIPDRFSGSGSGTDFTLTISRLEPEDFAVYYCQSYDINIDIVFGGGTKVEIKRTVAAPSVFIFPPSDEQLKSGTASVVCLLNNFYPREAKVQWKVDNALQSGNSQESVTEQDSKDSTYSLSSTLTLSKADYEKHKVYACEVTHQGLSSPVTKSFNRGEC
In the case of B6, in test [1], the “Potency IC50 (nM) NIH-3T3 hPDGF-BB” value stood at 4.83 nM. Besides, in test [2], the “Potency IC50 (nM) HMVEC-d hVEGF165” value was 0.069 nM.
